Assays:
[1] = Serum levels of rhNRG1 after intraperitoneal injection (Nrg1 ELISA kit); type: in vivo, mice; conditions: single intraperitoneal injection, 10 μg per kg body weight, pooled blood
Protocol: To measure peripheral exposure of rhNRG1 in mice, up to 50 μl blood was sampled from mice for four consecutive days via bilateral retro-orbital plexus and facial veins. For serum preparation, collected blood was allowed to clot at room temperature for 1 hour before spinning for 20 minutes at 2,000 g.
Blood serum levels of rhNRG1 before and after intraperitoneal injection were measured using a commercially available kit according to manufacturer's instructions (#ab100614; Abcam; USA).
Crush injury-induced schwannoma formation was provoked in 2-month-old mice. Subsequently, administration of rhNRG1 was performed both systemically (by intraperitoneal injection) and locally (by rhNRG1-containing absorbable collagen sponges (ACS)). Vehicle saline solution was given to control animals. In order to assess the bioavailability of intraperitoneally injected rhNRG1 (10 μg per kg body weight), rhNRG1 serum levels were evaluated. Strikingly, rhNRG1 levels reached a peak 2 days after injection (FIG. 1B). […] A significant decline in body weight at the chosen dosage was, however, not observed (FIG. 1C).

[2] = test system: crush injury-induced schwannoma; assay: In situ tumour size quantification: sciatic nerve diameter after crush injury-induced schwannoma formation; type: in vivo, Nf2flox;P0-Cre;Nefh-Cre mutant mice; conditions: KO mice
Description: Unilateral injuries of sciatic nerves were accomplished according to a previously described method (Bauder and Ferguson, 2012). In brief, 8 to 10 week old mice were anesthetized using 2% isoflurane in 100% oxygen. Fur was then removed from one hind limb. After an appropriate incision of the skin, the gluteal musculature was separated in order to reveal the right sciatic nerve. Using haemostatic forceps (Ultra Fine Haemostat; #13021-12; tip width 0.6 mm; Fine Science Tools; Germany), the nerve was crushed once by the application of a defined pressure for 20 s. The locking mechanism of the haemostatic forceps with a series of interlocking teeth ensured reproducibility and standardization of crush injury. Finally, both the gluteal musculature and skin incision were sutured using appropriate surgical suture material.
An EGF domain containing 7 kDa protein of recombinant human Neuregulin 1 (“rhNRG1”) was purchased from Reprokine (#RKQ02297; USA). Protein was firstly resolved in ddH2O and further diluted in phosphate-buffered saline (PBS) to reach target concentrations. […]
Sciatic nerve crush injury was conducted on WT mice and Nf2flox;P0-Cre;Nefh-Cre mutant mice as described above. […] Moreover by determining the myelin thickness, structural integrity of non-crushed, intact nerves was assessed (FIG. 7).

Schwann cells = assay: Neuropathological assessment (HE, immunolabelling) of sciatic nerve cross sections 3 months after crush injury; type: in vivo, P0-Cre;Nefh-Cre;Nf2fl/+ mice; conditions: KO mice
Description: For histological workup, paraformaldehyd fixed nerve samples were embedded in paraffin, cut at the site of the largest diameter and mounted as a tissue micro array. 4 μm thick cross sections were used for H&E staining and immunohistochemical labelling of S100 (1:8000; Dako), P0 (1:300; Bioss Antibodies), phospho-c-Jun (Ser73; 1:500; Cell Signalling; 8752), ErbB2 (1:500; Cell Signaling) and Arginase-1 (1:200; Santa Cruz; H-52) in an automated Ventana stainer (Ventana Medical Systems, USA) using standard antigen retrieval protocols (CC1st, no pretreatment for S100-protein). Onion-bulbs and schwannoma-like structures were assessed in H&E stained slides.
Immunohistochemistry was performed as described in (Schulz et al., 2010). Briefly, paraffin-embedded, longitudinal sections of sciatic nerves were rehydrated, boiled in 10 mM sodium citrate buffer (pH9) for 30 min in a microwave and subsequently treated with 0,5% Triton X-100 for 10 min. Sections incubated in 0.2% gelatine and 2% goat serum diluted in PBS at least 2 h. Sections submersed in the primary antibody solution overnight at 4° C. The following primary antibodies were used: Myelin protein zero (P0; 1:200; Abcam; ab39375), neurofilament (1:200; BioLegend; SMI312), myelin basic protein (MBP; 1:500; Millipore; MAB384)), Ki-67 (1:200; eBioscience; Clone: SolA15), lba-1 (1:200; Wako), and p75 (1:200; Merck Millipore; AB 1554). After vigorous washings, sections incubated with secondary antibody solution (Alexa488-, Alexa546- or Alexa647-conjugated anti-mouse, -rat, -chicken and -rabbit antibodies, 1:500 in PBS, Invitrogen) at room temperature for 2 h. Finally specimens washed in PBS, counterstained using DAPI (1 μg/ml PBS, 10 min) dehydrated and embedded. DAPI-stained cell nuclei or lba-1-positive cells were counted using ImageJ plugin ‘Particle Analysis’ from images acquired with 10× magnification after standardized background reduction and threshold setting.
Sciatic nerve crush injury was performed on WT and Nf2flox;P0-Cre;Nefh-Cre mutant animals as described in Example 1. The Nf2flox;P0-Cre;Nefh-Cre mutant animals were intraperitoneally injected every day with 10 μg of rhNRG1 per kg body weight (KO rhNRG1). For a control a PBS solution was systemically administered to WT animals and Nf2flox;P0-Cre;Nefh-Cre mutant animals (WT vehicle and KO vehicle). Sciatic nerve lysates were taken from animals after 3 month of treatment upon which immunochemistry was performed as described in Example 1.

[3] = systemic rhNRG1, 3 months after crush injury
[4] = systemic rhNRG1 vs saline-treated same genotype

B1: rhNRG1: EGF domain containing 7 kDa protein of recombinant human Neuregulin 1, purchased from Reprokine (#RKQ02297) (protein, listed as Homo sapiens)
chain: SHLVKCAEKEKTFCVNGGECFMVKDLSNPSRYLCKCPNEFTGDRCQNYVMASFYKHLGIEF
With B1 the “time of peak rhNRG1 serum level after injection” value [1] was 2 days, the “sciatic nerve diameter 3 months after crush injury” value ([2]; local collagen sponges soaked in 0.2 mg/ml rhNRG1, KO vehicle ACS about 1.8 mm, WT about 1 mm) was “about 1.4 mm” and the “sciatic nerve diameter 3 months after crush injury” value ([2]; systemic (ip) rhNRG1, KO vehicle about 2 mm, WT vehicle about 1 mm) was “about 1.5 mm”. The “number of immature Schwann cells (p75 staining)” value (Schwann cells; rhNRG1 injections) was “relevantly decreased”, the “immunoreactivity of schwannoma marker CPI-17” value (Schwann cells; rhNRG1 vs KO control injections) was “relevantly lower” and the “S100 and MPZ immunoreactivity” value (Schwann cells; [3]) was “restricted to Schwann cells with myelinating phenotype”. For the same molecule, the “nerve regeneration (histology)” value (Schwann cells; [3]) was “almost regular regeneration”, the “expression of Neuregulin1 (immunolabelling)” value (Schwann cells; [4]) was “greatly reduced” and the “expression of receptor tyrosine kinase ErbB2 (immunolabelling)” value (Schwann cells; [4]) was “greatly reduced”.

Source: patent US11426447B2, “Neuregulin for the treatment of tumors of the nervous system” (LEIBNIZ-INSTITUT FUR …, priority 2016, dated 2022)
